Measured values: article PMC10516627 (Nucleic Acids Research, 2023)

Target: GST-RNF168 (human, UniProt Q8IYW5 1-571)
Assay: pull-down

Sequence of GST-RNF168 (Q8IYW5 whole entry): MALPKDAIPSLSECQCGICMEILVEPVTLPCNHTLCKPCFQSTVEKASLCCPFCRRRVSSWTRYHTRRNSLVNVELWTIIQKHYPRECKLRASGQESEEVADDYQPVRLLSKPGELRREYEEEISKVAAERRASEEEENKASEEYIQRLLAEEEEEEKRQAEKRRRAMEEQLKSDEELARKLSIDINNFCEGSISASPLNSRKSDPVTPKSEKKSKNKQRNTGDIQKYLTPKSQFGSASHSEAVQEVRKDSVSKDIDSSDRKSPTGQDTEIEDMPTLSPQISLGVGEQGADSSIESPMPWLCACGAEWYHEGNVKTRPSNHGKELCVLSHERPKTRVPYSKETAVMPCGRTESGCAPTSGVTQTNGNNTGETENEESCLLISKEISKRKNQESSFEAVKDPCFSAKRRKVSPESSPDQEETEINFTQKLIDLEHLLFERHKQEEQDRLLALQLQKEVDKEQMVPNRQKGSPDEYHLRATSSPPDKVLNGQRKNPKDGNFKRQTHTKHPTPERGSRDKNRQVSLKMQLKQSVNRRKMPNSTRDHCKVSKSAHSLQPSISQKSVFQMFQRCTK

B1: His-HDAC6 DAC1 domain (1-440 aa) (domain or fragment, human, UniProt Q9UBN7 1-440, looked up)
chain: MTSTGQDSTTTRQRRSRQNPQSPPQDSSVTSKRNIKKGAVPRSIPNLAEVKKKGKMKKLGQAMEEDLIVGLQGMDLNLEAEALAGTGLVLDEQLNEFHCLWDDSFPEGPERLHAIKEQLIQEGLLDRCVSFQARFAEKEELMLVHSLEYIDLMETTQYMNEGELRVLADTYDSVYLHPNSYSCACLASGSVLRLVDAVLGAEIRNGMAIIRPPGHHAQHSLMDGYCMFNHVAVAARYAQQKHRIRRVLIVDWDVHHGQGTQFTFDQDPSVLYFSIHRYEQGRFWPHLKASNWSTTGFGQGQGYTINVPWNQVGMRDADYIAAFLHVLLPVALEFQPQLVLVAAGFDALQGDPKGEMAATPAGFAQLTHLLMGLAGGKLILSLEGGYNLRALAEGVSASLHTLLGDPCPMLESPGAPCRSAQASVSCALEALEPFWEVLVR
binding result: binds

B2: His-HDAC6 DAC2 domain (441-835 aa) (domain or fragment, human, UniProt Q9UBN7 441-835, looked up)
chain: STETVERDNMEEDNVEESEEEGPWEPPVLPILTWPVLQSRTGLVYDQNMMNHCNLWDSHHPEVPQRILRIMCRLEELGLAGRCLTLTPRPATEAELLTCHSAEYVGHLRATEKMKTRELHRESSNFDSIYICPSTFACAQLATGAACRLVEAVLSGEVLNGAAVVRPPGHHAEQDAACGFCFFNSVAVAARHAQTISGHALRILIVDWDVHHGNGTQHMFEDDPSVLYVSLHRYDHGTFFPMGDEGASSQIGRAAGTGFTVNVAWNGPRMGDADYLAAWHRLVLPIAYEFNPELVLVSAGFDAARGDPLGGCQVSPEGYAHLTHLLMGLASGRIILILEGGYNLTSISESMAACTRSLLGDPPPLLTLPRPPLSGALASITETIQVHRRYWRSLR
binding result: binds
